Measured values from US20210230238A1 (DEUTSCHES KREBSFORSCHUNGSZENTRUM STIFTUNG DES FFENTLICHEN …, published 2021).

Assays:
Experiment in all cases: SPR, Dectin-1 immobilized, 1:1 model
[1] = target: T1, murine annexin A1 core domain (murine, UniProt P10107 41-344)
T1 construct: Recombinant core domain; also called mAnxA1 core; core annexin A1 domain
T1 sequence: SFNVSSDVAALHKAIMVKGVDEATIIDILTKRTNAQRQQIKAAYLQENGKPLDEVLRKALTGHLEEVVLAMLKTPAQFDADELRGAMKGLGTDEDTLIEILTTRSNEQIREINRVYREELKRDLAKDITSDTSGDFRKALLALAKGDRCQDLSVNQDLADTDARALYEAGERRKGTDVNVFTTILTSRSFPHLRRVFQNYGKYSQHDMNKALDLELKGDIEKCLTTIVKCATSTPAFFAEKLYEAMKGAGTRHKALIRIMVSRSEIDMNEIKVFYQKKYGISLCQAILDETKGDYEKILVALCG

[2] = target: T2, murine annexin A1 (murine, UniProt P10107 2-346)
T2 construct: Recombinant protein; also called mAnxA1
T2 sequence: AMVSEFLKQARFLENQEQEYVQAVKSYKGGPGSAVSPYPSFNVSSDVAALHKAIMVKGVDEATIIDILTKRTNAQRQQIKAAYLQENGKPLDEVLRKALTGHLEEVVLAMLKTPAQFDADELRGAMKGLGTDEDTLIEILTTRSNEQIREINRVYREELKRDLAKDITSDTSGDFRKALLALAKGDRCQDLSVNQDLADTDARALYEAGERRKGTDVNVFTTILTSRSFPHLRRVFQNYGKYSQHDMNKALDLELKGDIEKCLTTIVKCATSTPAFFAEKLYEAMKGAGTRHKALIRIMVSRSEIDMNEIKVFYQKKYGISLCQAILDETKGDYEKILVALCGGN

[3] = target: T3, murine annexin A5 (murine, UniProt P48036 2-319)
T3 construct: Recombinant protein; also called mAnxA5
T3 sequence: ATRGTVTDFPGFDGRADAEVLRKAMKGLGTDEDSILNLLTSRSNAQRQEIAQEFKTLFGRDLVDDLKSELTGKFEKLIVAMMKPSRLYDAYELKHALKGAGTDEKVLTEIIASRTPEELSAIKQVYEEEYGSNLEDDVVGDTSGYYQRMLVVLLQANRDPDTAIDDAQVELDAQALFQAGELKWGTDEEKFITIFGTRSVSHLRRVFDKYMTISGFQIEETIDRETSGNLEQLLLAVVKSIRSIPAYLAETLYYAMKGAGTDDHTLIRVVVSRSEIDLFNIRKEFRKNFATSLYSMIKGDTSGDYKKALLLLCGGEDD

[4] = target: T4, murine annexin A13 (murine, UniProt Q99JG3 2-317)
T4 construct: Recombinant protein; also called mAnxA13
T4 sequence: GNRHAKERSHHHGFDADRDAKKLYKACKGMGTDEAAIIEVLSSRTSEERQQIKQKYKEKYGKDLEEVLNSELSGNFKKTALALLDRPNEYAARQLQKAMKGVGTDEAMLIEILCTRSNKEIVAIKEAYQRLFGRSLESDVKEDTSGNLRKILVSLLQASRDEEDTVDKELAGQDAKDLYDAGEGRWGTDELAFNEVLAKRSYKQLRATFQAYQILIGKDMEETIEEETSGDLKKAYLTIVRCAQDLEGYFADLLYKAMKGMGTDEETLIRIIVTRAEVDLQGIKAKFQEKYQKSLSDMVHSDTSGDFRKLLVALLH

Measured: Kd

B1: Dectin-1 (receptor)
chain: GHNSGRNPEEKDNFLSRNKENHKPTESSLDEKVAPSKASQTTGGFSQPCLPNWIMHGKSCYLFSFSGNSWYGSKRHCSQLGAHLLKIDNSKEFEFIESQTSSHRINAFWIGLSRNQSEGPWFWEDGSAFFPNSFQVRNTAPQESLLHNCVWIHGSEVYNQICNTSSYSICEKEL
~100 nM: [1] | [2] | [3] | [4]
